From FireProtDB (doi:10.1021/bi962155i)
“And” between values parts separate entries of the source, which are not always exact repeats. Equal values may be shown once.

Details: Saccharomyces cerevisiae (strain ATCC 204508 / S288c), pH 5, CD, Sodium acetate buffer, reversible: yes

Sequence of Cytochrome c isoform 1 wild type, P00044 (P00044 whole entry, canonical isoform): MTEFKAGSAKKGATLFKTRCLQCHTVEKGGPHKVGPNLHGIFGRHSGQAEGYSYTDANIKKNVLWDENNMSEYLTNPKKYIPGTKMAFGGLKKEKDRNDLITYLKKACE

Substance: Cytochrome c isoform 1 wild type, P00044
- denaturant m value (5 °C, GdnHCl): 5.4 kcal/mol/M
- denaturant midpoint (higher = more stable) (5 °C, GdnHCl): 1.4 M
- unfolding free energy (5 °C, GdnHCl): 7.8 kcal/mol
- unfolding enthalpy (calorimetric) (Thermal): 91.8 kcal/mol and 42.8 kcal/mol
